Experimental data taken from patent publication US20210061891A1.
Substitutions are numbered along the chain they refer to.

B1: Ab7955 (antibody, V domains shown)
VH: LVESGGGVVRPGRSLRLSCVASGFTFNAYGMHWVRQGPGKGLEWLAVISYEGKTVYYADSVKDRFTISRDNSRNTVSLHLNNLRGEDTAVYYCAKGSASAAVLQHWGQGTLVSVTS
VL: MTQSPGSLAVSLGSRATINCKSSRSLLYRSNNKNYLAWYQQKPGQSPRLLIYWASSRESGVPDRFSGGGSGTSFTLTISSLQAEDVAVYYCQQYFNPPWTFGQGTKVEIK
B2: Ab7960/293i (antibody, V domains shown)
VH: LVESGGGVVQPGKSLRLSCVASGFSFSTYGMHWVRQAPGKGLEWVAVMSFDGKTKYYADSVKGRFTISRDNPKNTLYLQMNSLRSEDTAVYYCAKGGAAAAVFDSWGPGILLTVSS
VL: MTQSPNSLAVSLGGRATINCKASQSILYRSNNKNYLAWYQHKAGQPPKLLIYWASTRESGVPERFSGSGSRTDFTLTINGLQAEDVAVYYCQQYYNPPWTFGQGTKVEIK
B3: Ab7961/293i (antibody, V domains shown)
VH: B2 VH with S25T, T28S, P108Q
VL: B2 VL with A22T, A43S, E63D, N79S
B4: Ab7979 (antibody, V domains shown)
VH: B2 VH with S25T, P108Q
VL: B2 VL with A22T, A43P, G60R, E63D, N79S

Columns and labels:
Experiment in all cases: ELISA on streptavidin-immobilized biotinylated 15mer peptides; area under the signal vs antibody concentration curve
residue mutated to A: I = biological target: residue mutated to A: I
residue mutated to A: T = biological target: residue mutated to A: T
residue mutated to A: N = biological target: residue mutated to A: N

Row | Binder | percent of binding to the natural peptide (AUC) (residue mutated to A: T) [%] | further results
1 | B1 | – | percent of binding to the natural peptide (AUC) (residue mutated to A: I): 8%
2 | B2 | 4 | –
3 | B3 | – | percent of binding to the natural peptide (AUC) (residue mutated to A: N): 4%
4 | B4 | 34 | –
